For orientation: Kd means the concentration at which binding is half-saturated. High values mean lower affinity, low ones higher affinity. The term EC50 (read off the curve) denotes the concentration that produces a half-maximal response.

This note sets out measurements from patent US20180111972A1.

Assay [1] addresses human PDGFR on BJ-5ta human fibroblasts (human) (UniProt P09619). The experiment in a line: flow cytometry on cells, soluble ligand titrated, anti-FLAG-PE.
The target of assay [2] is mouse PDGFR on NIH/3T3 mouse fibroblasts (mouse) (UniProt P05622). Described as above.
In assay [3] the target is human PDGFR on BJ-5ta human fibroblasts (human) (UniProt P09619). The experiment in a line: flow cytometry on BJ-5ta cells, soluble ligand titrated 5 h at 4 C, anti-FLAG-PE.
Assay [4] concerns the target mouse PDGFR on NIH/3T3 mouse fibroblasts (mouse) (UniProt P05622). The experiment in a line: flow cytometry on NIH/3T3 cells, soluble ligand titrated 5 h at 4 C, anti-FLAG-PE. In general terms: Flow cytometry measures light scatter and fluorescence of single cells or particles in a stream.
Assay [5] concerns the target human PDGFR on BJ-5ta human fibroblasts (human) (UniProt P09619). Kind of assay: flow cytometry titration of the soluble FLAG-tagged protein on BJ-5ta cells, anti-FLAG detection.

Sequence of scPDGF, single-chain version of wild-type PDGF-BB, soluble, FLAG and hexahistidine tags (ligand) (chain, part): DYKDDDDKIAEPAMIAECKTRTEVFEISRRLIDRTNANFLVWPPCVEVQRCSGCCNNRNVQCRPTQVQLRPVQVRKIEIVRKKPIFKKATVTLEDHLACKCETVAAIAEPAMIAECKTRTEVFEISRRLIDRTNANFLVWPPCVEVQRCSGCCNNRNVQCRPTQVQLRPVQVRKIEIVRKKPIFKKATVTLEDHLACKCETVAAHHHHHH

With “scPDGF, single-chain version of wild-type PDGF-BB, soluble, FLAG and hexahistidine tags (ligand)”, the Kd in assay [1] is 1.5 pM; in assay [2], 2.5 pM; in assay [3], 1.5 pM; in assay [4], 2.7 pM. In assay [5], this substance came in with an EC50 (read off the curve) of 1 pM.
